Measured values published in patent CN101899115A.
One block for each molecule: values may come before it.

What was measured:
CD3 (on Jurkat cells) [1] = target: CD3 (on Jurkat cells) (UniProt P07766); assay: FACS, HIT3a alone on Jurkat cells, FITC anti-mouse IgG
CD19 (on Raji cells) [2] = target: CD19 (on Raji cells) (UniProt P15391); assay: FACS, HIT19a alone on Raji cells, FITC anti-mouse IgG
CD3 (on Jurkat cells) [3] = target: CD3 (on Jurkat cells) (UniProt P07766); assay: FACS competition on Jurkat cells: ds-Diabody mixed with competitor HIT3a, HIT3a detected with FITC anti-mouse IgG
CD19 (on Raji cells) [4] = target: CD19 (on Raji cells) (UniProt P15391); assay: FACS competition on Raji cells: ds-Diabody mixed with competitor HIT19a, HIT19a detected with FITC anti-mouse IgG

- 细胞结合阳性率 (CD3 (on Jurkat cells) [1]): 100%
Molecule: 抗CD3鼠源性单克隆抗体HIT3a (antibody)

- 细胞结合阳性率 (CD19 (on Raji cells) [2]): 100%
Molecule: 抗CD19鼠源性单克隆抗体HIT19a (antibody)

- 细胞结合阳性率 (HIT3a signal remaining with ds-Diabody present) (CD3 (on Jurkat cells) [3]): 51.1%
- 细胞结合阳性率 (HIT19a signal remaining with ds-Diabody present) (CD19 (on Raji cells) [4]): 63.3%
B1: 二硫键稳定的抗CD3-抗CD19微型双功能抗体 (disulfide-stabilized anti-CD3/anti-CD19 diabody) (bispecific antibody)
chain 1: ADIELTQSPAIMSASPGEKVTMTCSASSSVSYMNWYQQKSGTSPKRWIYDTSKLASGVPARFSGSGSGTSYSLTISGMEAEDAATYYCQQWSSNPFTFGCGTKLELKRGGGGSQVQLQQSGAELVRPGSSVKISCKASGYAFSSYWMNWVKQRPGQGLEWIGQIYPGDGDTNYNGKFKGQATLTADKSSSTAYMQLSGLTSEDSAVYFCARKTISSVVDFYFDYWGQGTTLTVSS
chain 2: DIVLTQSPKFMSTSVGDRVSSPAKASQNVGTNVAWYQQKPGQSPKPLIYSATYRNSGVPDRFTGSGSGTDFTLTITNVQSKDLADYFCQQYNRYPYTSGGGTKLEIKRGGGGSQVQLQQSGAELARPGASVKMSCKASGYTFTRYTMHWVKQRPGQCLEWIGYINPSRGYTNYNQKFKDKATLTTDKSSSTAYMELTRLTSEDSAVYYCARYYDDHYSLDYWGQGTTVTVSS
